Data published in the supplement of paper PMC9112550, “Optimization of the antimicrobial peptide Bac7 by deep mutational scanning” (BMC Biology, 2022).

Each sequence was assayed on Escherichia coli TOP10 (assay: shrunken log2 fold change of peptide-encoding DNA abundance (4.5 h post-induction vs induction); higher = less antimicrobial activity (less host growth inhibition)). Conditions: time post-induction: 4.5 h; library: site-saturation at positions 5, 18, 19, 20.
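Further: peptides expressed intracellularly from a pBAD plasmid library in pooled LB shake-flask culture, induced with 0.3% L-arabinose, DNA abundance read by NGS, three biological replicates, DESeq2 with apeglm shrinkage.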

Sequence	shrunken log2 fold change
RRIRVRPPRLPRPRPRPNNKPRP	-0.472
RRIRVRPPRLPRPRPRPYYTPRP	-1.39
RRIRGRPPRLPRPRPRPEPVPRP	0.806
RRIRPRPPRLPRPRPRPRPWPRP	0.212
RRIRIRPPRLPRPRPRPRVYPRP	0.00283
RRIRIRPPRLPRPRPRPYYCPRP	-0.529
RRIRPRPPRLPRPRPRPLPDPRP	0.179
RRIRLRPPRLPRPRPRPIRWPRP	-0.241
RRIRQRPPRLPRPRPRPAGWPRP	0.808
RRIRVRPPRLPRPRPRPSNDPRP	-0.244
RRIRTRPPRLPRPRPRPVYEPRP	0.00717
RRIRFRPPRLPRPRPRPPAAPRP	1.32
RRIRIRPPRLPRPRPRPDGKPRP	-0.000921
RRIRIRPPRLPRPRPRPHPLPRP	-0.516
RRIRQRPPRLPRPRPRPIMIPRP	-0.452
RRIRYRPPRLPRPRPRPWCFPRP	-0.369
RRIRFRPPRLPRPRPRPDAAPRP	0.681
RRIRFRPPRLPRPRPRPAYLPRP	-0.649
RRIRARPPRLPRPRPRPEAMPRP	0.805
RRIRCRPPRLPRPRPRPVETPRP	0.0672
RRIRARPPRLPRPRPRPSPRPRP	0.818
RRIRARPPRLPRPRPRPCNQPRP	-0.253
RRIRNRPPRLPRPRPRPREGPRP	0.187
RRIRRRPPRLPRPRPRPQVYPRP	-0.0473
RRIRIRPPRLPRPRPRPFPLPRP	-0.547

Sequence	shrunken log2 fold change
RRIRVRPPRLPRPRPRPTHVPRP	0.0149
RRIRMRPPRLPRPRPRPFLGPRP	0.254
RRIRGRPPRLPRPRPRPGAAPRP	1.43
RRIRGRPPRLPRPRPRPFTIPRP	-0.0307
RRIRERPPRLPRPRPRPRAHPRP	0.352
RRIRLRPPRLPRPRPRPCHYPRP	-0.0212
RRIRWRPPRLPRPRPRPMMPPRP	0.0187
RRIRTRPPRLPRPRPRPFWDPRP	0.126
RRIRNRPPRLPRPRPRPEFMPRP	0.0662
RRIRCRPPRLPRPRPRPQQDPRP	-0.046
RRIRRRPPRLPRPRPRPCWPPRP	0.0865
RRIRRRPPRLPRPRPRPLGMPRP	0.471
RRIRERPPRLPRPRPRPFWFPRP	-0.303
RRIRGRPPRLPRPRPRPLNKPRP	0.11
RRIRGRPPRLPRPRPRPVVVPRP	0.985
RRIRFRPPRLPRPRPRPQKSPRP	-0.285
RRIRQRPPRLPRPRPRPQMCPRP	0.109
RRIRYRPPRLPRPRPRPTHMPRP	-0.429
RRIRTRPPRLPRPRPRPKHEPRP	-0.3
RRIRERPPRLPRPRPRPDSMPRP	-0.076
RRIRHRPPRLPRPRPRPWKVPRP	-0.0338
RRIRARPPRLPRPRPRPEARPRP	1.42
RRIRARPPRLPRPRPRPTERPRP	0.502
RRIRYRPPRLPRPRPRPDRHPRP	-0.189
RRIRPRPPRLPRPRPRPFWHPRP	-0.017
